Laboratory results: patent US20170050988A1, “DOTAM DERIVATIVES FOR THERAPEUTIC USE” (priority 2013, published 2017)
pIC50: −log10 of the molar value. Converted amounts (≈) assume the structure as drawn. “Also recorded” adds a separate entry of the source. Starred links: 1 amine or outer side, 2 acyl side, 3 side chain; linkers in the order of their positions; H or OH if unused. Positions of bridges follow the written chain, without caps; N, C: chain ends. Non-standard residues stand in square brackets, D forms with d. Residues, ends and D or L forms follow the SMILES beside them. Chains are numbered I, II in the order given. *: point of attachment. X1 = CN1/C(=C/C=C/C=C/C2=[N+](CCCCCC(=O)NCCOCCOCCNC(=O)CN3CCN(CC(=O)NCCOCCOCCN[*:1])CCN(CC(=O)NCCOCCOCCN[*:3])CCN(CC(=O)NCCOCCOCCN[*:2])CC3)c3ccc4ccccc4c3C2(C)C)C(C)(C)c2c1ccc1ccccc21; X4 = CN1/C(=C/C=C/C=C/C2=[N+](CCCCCC(=O)NCCOCCOCCN*)c3ccc4ccccc4c3C2(C)C)C(C)(C)c2c1ccc1ccccc21; Sta = CC(C)C[C@H](N)[C@@H](O)CC(=O)O; Isovaleryl = CC(C)CC(=O)*

Key:
[1] = In vivo half life / retention of Cy5.5 probes in mouse knee joints (optical imaging); details: male, C57BL/6J, mouse, in vivo
Description: (§1) Measurement of In Vivo Half Life of Compounds in Mice
(§2) Male C57 BL/6J mice aged 10 weeks were purchased from Harlan Laboratories (Blackthorn, Bicester, UK). Mice were housed in groups of 6 in individually vented cages, maintained at 21±2° C. on a 12-hour light/dark cycle and with food provided ad libitum. All experimental protocols were performed in compliance with the UK Animals (Scientific Procedures) Act 1986 regulations for the handling and use of laboratory animals (Home Office project license PPL no: 70/7288).
(§3) One hundred nanomoles of each of the compounds were injected into the intra-articular space following induction of anaesthesia by gaseous anaesthetic (2% isofluorane and O2). Planar fluorescence images of the knee joints was captured at the time points indicated by capturing the emission at 700 nm for 1 min after exposure at 630 nm under gaseous anaesthesia (2.5% isofluorane and O2) in a Kodak In Vivo FX Pro (Carestream, Woodbridge, USA). Planar X-ray images were obtained by exposure to X-rays for 20 seconds for co-registration purposes.
(§4) To calculate the half lives of the compounds in the joint, fluorescence images were analysed using the Carestream MI software (version 5.1). Circular regions of interest (ROI) of 25 pixels in diameter were defined to encompass the knee joint, which was defined by co-registration of X-ray images. The mean fluorescence intensity (MFI) of the ROI was obtained. Fluorescence images shown are false coloured using the rainbow spectrum, with purple being the lowest value and red being the highest value, and the range indicated in the figures. […] All statistical analysis was carried out using the Prism Software (Graphpad, La Jolla, USA).
(§5) We further evaluated the binding capacity of the probes to cartilage in vivo using optical imaging. 0.1 μmol of each of the compounds were injected intra-articularly into the knees of mice, and in vivo fluorescent microscopy and X-ray were used to quantify localization and retention. The decay in signal was fitted to a two-phase exponential decay model to describe the rapid clearance of unbound probe from the joint and the slow clearance of bound probe from the cartilage (n=5).

[2] = system: knee joints of mice; experiment: as above
Description: as §1, §2, §3, §4, §5

[3] = system: pig articular cartilage explants; experiment: Ex vivo GAG release model with pig articular cartilage explants; type: cell-based; details: explants pre-incubated with 1 μM inhibitor 24 h, then washed
[4] = molecular target: T1, Cathepsin D (Homo sapiens, UniProt P07339); experiment: Cathepsin D enzyme assay; type: biochemical; details: purified Cathepsin D, pH 4.5, 37° C.; read-out: IC50
T1 construct: purchased Biomol Se-199
Description: For quantification of Cathepsin D inhibitory activity, an enzymatic assay was used that measures the turnover of a quenched, fluorescenctly-labeled, Cathepsin D-cleavable, peptide substrate over time.
Specifically, 13 ng of purified Cathepsin D enzyme (Biomol; Cat.No. Se-199) was administered per well of a 96 well plate, substance/inhibitor of interest was added and the mixture incubated for 10 min. at 37° C. Then, the enzymatic reaction was started by addition of fluorescenctly-labeled, Cathepsin D-Substrat ([…] (7-Methoxycoumarin-4-yl)-acetyl-Pro-Leu-Gly-Leu-(3 [2,4-dinitrophenyl]-L-2,3-diaminopropionyl)-Ala-Arg-NH2 (Bachem M-1895). The reaction volume amounts to 30 μl and contains 50 mM acetic acid, 200 mM NaCl and 0.003% Brij 35 and was adjusted to pH 4.5 with acetic acid. By cleavage of the peptide chain, the […] is released and the emission of fluorescence dye is measured using excitation/emission wavelengths ([…]) on a Tecan Spectrafluor Plus—instrument at 37° C. for 10 min. For the determination of the compound dose response, a 10 mM DMSO stock solution was diluted and tested in a ten-point, three-fold dilution series run in duplicate beginning at 30 μM final concentration. Data were analyzed using a four-parameter curve fit with a fixed minimum and maximum experimentally defined as the average positive and negative controls on each plate.

[5] = Solubility in phosphate buffer; type: physicochemical; details: phosphate buffer at pH 7.4
[6] = system: pig articular cartilage explants; experiment: Ex vivo binding assay with pig articular cartilage explants; details: 5 μM probe, 24 h incubation, washed; integrated fluorescence
Description: To evaluate the cartilage targeting affinities of these five DOTAM-derived compounds, we performed an ex vivo binding assay of these Cy 5.5-labeled probes with pig articular cartilage explants. In these ex vivo experiments, whole-depth pig articular cartilage blocks were incubated with 5 μM of each probe for 24 h, washed 3 times for 10 min each with PBS buffer at 37° C. to remove non-binding probes, then imaged using fluorescent microscopy. The intensity of the near infrared fluorescent signal from Cy 5.5 presents the relevant amount of these probes remaining in the cartilage.

[7] = 100 nmol, First Half Life (h), 100 nmol intra-articular, mouse knee, two phase decay fit of fluorescence, fast half life (t1), loss from the joint space
[8] = 100 nmol, Terminal Half Life (h), 100 nmol intra-articular, mouse knee, two phase decay fit, slower half life (t2, t1/2beta), loss of cartilage-bound compound

T1 sequence (P07339 65-412): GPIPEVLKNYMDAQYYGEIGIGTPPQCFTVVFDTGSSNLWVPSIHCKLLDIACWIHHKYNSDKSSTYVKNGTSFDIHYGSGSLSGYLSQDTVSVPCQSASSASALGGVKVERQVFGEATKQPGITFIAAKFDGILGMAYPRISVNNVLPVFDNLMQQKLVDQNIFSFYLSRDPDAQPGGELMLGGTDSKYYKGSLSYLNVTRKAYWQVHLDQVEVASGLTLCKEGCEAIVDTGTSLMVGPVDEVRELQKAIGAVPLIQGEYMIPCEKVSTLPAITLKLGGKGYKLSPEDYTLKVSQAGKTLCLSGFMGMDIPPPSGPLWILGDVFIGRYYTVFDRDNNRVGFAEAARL

CC(=O)N[C@@H](Cc1c[nH]c2ccccc12)C(=O)N[C@@H](Cc1ccc(O)cc1)C(=O)N[C@@H](CCCNC(=N)N)C(=O)NCC(=O)N[C@@H](CCCNC(=N)N)C(=O)N[C@@H](CC(C)C)C(=O)NCCOCCOCCNC(=O)CCCCC[N+]1=C(/C=C/C=C/C=C2/N(C)c3ccc4ccccc4c3C2(C)C)C(C)(C)c2c1ccc1ccccc21 [HHY-259B, AcWYRGRL-Cy 5.5] (Ac-WYRGRL-X4)
half-life [1, 7]: 2.3 h
half-life [1, 8]: 205 h

CC(=O)N[C@@H](Cc1c[nH]c2ccccc12)C(=O)N[C@@H](Cc1ccc(O)cc1)C(=O)N[C@@H](CCCNC(=N)N)C(=O)NCC(=O)N[C@@H](CCCNC(=N)N)C(=O)N[C@@H](CC(C)C)C(=O)NCCOCCOCCNC(=O)CN1CCN(CC(=O)NCCOCCOCCNC(=O)CCCCC[N+]2=C(/C=C/C=C/C=C3/N(C)c4ccc5ccccc5c4C3(C)C)C(C)(C)c3c2ccc2ccccc32)CCN(CC(=O)NCCOCCOCCNC(=O)[C@H](CC(C)C)NC(=O)[C@H](CCCNC(=N)N)NC(=O)CNC(=O)[C@H](CCCNC(=N)N)NC(=O)[C@H](Cc2ccc(O)cc2)NC(=O)[C@H](Cc2c[nH]c3ccccc23)NC(C)=O)CCN(CC(=O)NCCOCCOCCNC(=O)[C@H](CC(C)C)NC(=O)[C@H](CCCNC(=N)N)NC(=O)CNC(=O)[C@H](CCCNC(=N)N)NC(=O)[C@H](Cc2ccc(O)cc2)NC(=O)[C@H](Cc2c[nH]c3ccccc23)NC(C)=O)CC1 [HHY-290, (AcWYRGRL)3-DOTA-Cy5.5] (I: Ac-WYRGRL / II: Ac-WYRGRL / III: Ac-WYRGRL; linker I:C-II:C-III:C via X1)
retained initial signal ([2]; 8 days after intra-articular injection, 0.1 μmol, mouse knee): 40%
half-life [1, 7]: 8.9 h
half-life [1, 8]: 1280 h

CC(=O)N[C@@H](Cc1c[nH]c2ccccc12)C(=O)N[C@@H](Cc1ccc(O)cc1)C(=O)N[C@@H](CCCNC(=N)N)C(=O)NCC(=O)N[C@@H](CCCNC(=N)N)C(=O)N[C@@H](CC(C)C)C(=O)NCCOCCOCCNC(=O)CN1CCN(CC(=O)NCCOCCOCCNC(=O)C[C@H](O)[C@H](CC(C)C)NC(=O)[C@H](C)NC(=O)C[C@H](O)[C@H](CC(C)C)NC(=O)[C@@H](NC(=O)[C@@H](NC(=O)CC(C)C)C(C)C)C(C)C)CCN(CC(=O)NCCOCCOCCNC(=O)[C@H](CC(C)C)NC(=O)[C@H](CCCNC(=N)N)NC(=O)CNC(=O)[C@H](CCCNC(=N)N)NC(=O)[C@H](Cc2ccc(O)cc2)NC(=O)[C@H](Cc2c[nH]c3ccccc23)NC(C)=O)CCN(CC(=O)NCCOCCOCCNC(=O)[C@H](CC(C)C)NC(=O)[C@H](CCCNC(=N)N)NC(=O)CNC(=O)[C@H](CCCNC(=N)N)NC(=O)[C@H](Cc2ccc(O)cc2)NC(=O)[C@H](Cc2c[nH]c3ccccc23)NC(C)=O)CC1 [HHY-299, (AcWYRGRL)3-DOTA-Pepstatin A]
inhibition of GAG release ([3]; 24 hours after stimulation at pH 5.0): 34%
inhibition of GAG release ([3]; 48 hours after stimulation at pH 5.0): 18%
pIC50 [4]: 8.48

CC(C)CC(=O)N[C@H](C(=O)N[C@H](C(=O)N[C@@H](CC(C)C)[C@@H](O)CC(=O)N[C@@H](C)C(=O)N[C@@H](CC(C)C)[C@@H](O)CC(=O)O)C(C)C)C(C)C [Pepstatin A, reference compound] (Isovaleryl-VV[Sta]A[Sta]-OH)
solubility [5]: 820 µg/mL (≈ 1200 µM)
effect on acid-stimulated GAG release / degradation (FIG. 3) ([3]; pH 5.0): no effect at all; also recorded: not effective

CC(=O)N[C@@H](Cc1ccc(O)cc1)C(=O)N[C@@H](CCCNC(=N)N)C(=O)N[C@@H](CC(C)C)C(=O)NCC(=O)N[C@@H](CCCNC(=N)N)C(=O)N[C@@H](Cc1c[nH]c2ccccc12)C(=O)NCCOCCOCCNC(=O)CN1CCN(CC(=O)NCCOCCOCCNC(=O)CCCCC[N+]2=C(/C=C/C=C/C=C3/N(C)c4ccc5ccccc5c4C3(C)C)C(C)(C)c3c2ccc2ccccc32)CCN(CC(=O)NCCOCCOCCNC(=O)[C@H](Cc2c[nH]c3ccccc23)NC(=O)[C@H](CCCNC(=N)N)NC(=O)CNC(=O)[C@H](CC(C)C)NC(=O)[C@H](CCCNC(=N)N)NC(=O)[C@H](Cc2ccc(O)cc2)NC(C)=O)CCN(CC(=O)NCCOCCOCCNC(=O)[C@H](Cc2c[nH]c3ccccc23)NC(=O)[C@H](CCCNC(=N)N)NC(=O)CNC(=O)[C@H](CC(C)C)NC(=O)[C@H](CCCNC(=N)N)NC(=O)[C@H](Cc2ccc(O)cc2)NC(C)=O)CC1 [HHY-293, (AcYRLGRW)3-DOTA-Cy5.5] (I: Ac-YRLGRW / II: Ac-YRLGRW / III: Ac-YRLGRW; linker I:C-II:C-III:C via X1)
Terminal Half Life ([2]; male, C57BL/6J, mouse, in vivo): 18.75 h
half-life ([1]; First Half Life (h)): 3 h
half-life ([1]; Terminal Half Life (h)): 19 h

CC(=O)N[C@@H](Cc1ccc(O)cc1)C(=O)N[C@@H](CCCNC(=N)N)C(=O)N[C@@H](CC(C)C)C(=O)NCC(=O)N[C@@H](CCCNC(=N)N)C(=O)N[C@@H](Cc1c[nH]c2ccccc12)C(=O)NCCOCCOCCNC(=O)CCCCC[N+]1=C(/C=C/C=C/C=C2/N(C)c3ccc4ccccc4c3C2(C)C)C(C)(C)c2c1ccc1ccccc21 [HHY-258B, AcYRLGRW-Cy5.5] (Ac-YRLGRW-X4)
half-life ([1]; First Half Life (h)): 2 h
half-life ([1]; Terminal Half Life (h)): 35 h

CC(=O)N[C@@H](Cc1ccc(O)cc1)C(=O)N[C@@H](CCCNC(=N)N)C(=O)N[C@@H](CC(C)C)C(=O)NCC(=O)N[C@@H](CCCNC(=N)N)C(=O)N[C@@H](Cc1c[nH]c2ccccc12)C(=O)NCCOCCOCCNC(=O)CN1CCN(CC(=O)NCCOCCOCN)CCN(CC(=O)NCCOCCOCCN)CCN(CC(=O)NCCOCCOCCNC(=O)CCCCCN2c3ccc4ccccc4c3C(C)(C)C2/C=C/C=C/C=C2/N(C)c3ccc4ccccc4c3C2(C)C)CC1 (some centres unmarked) [HHY-322, AcYRLGRW-DOTA-Cy5.5]
Terminal Half Life ([2]; male, C57BL/6J, mouse, in vivo): 12.5 h
half-life ([1]; First Half Life (h)): 1.67 h
half-life ([1]; Terminal Half Life (h)): 13 h

CC(C)CC(=O)N[C@H](C(=O)N[C@H](C(=O)N[C@@H](CC(C)C)[C@@H](O)CC(=O)N[C@@H](C)C(=O)N[C@@H](CC(C)C)[C@@H](O)CC(=O)NCCOCCOCCNC(=O)CN1CCN(CC(=O)NCCOCCOCCN)CCN(CC(=O)NCCOCCOCCN)CCN(CC(=O)NCCOCCOCCN)CC1)C(C)C)C(C)C [HHY-325]
pIC50 [4]: 8.54

CC(=O)N[C@@H](Cc1c[nH]c2ccccc12)C(=O)N[C@@H](Cc1ccc(O)cc1)C(=O)N[C@@H](CCCNC(=N)N)C(=O)NCC(=O)N[C@@H](CCCNC(=N)N)C(=O)N[C@@H](CC(C)C)C(=O)NCCOCCOCCNC(=O)CN1CCN(CC(=O)NCCOCCOCCN)CCN(CC(=O)NCCOCCOCCN)CCN(CC(=O)NCCOCCOCCNC(=O)CCCCC[N+]2=C(/C=C/C=C/C=C3/N(C)c4ccc5ccccc5c4C3(C)C)C(C)(C)c3c2ccc2ccccc32)CC1 [HHY-312, AcWYRGRL-DOTA-Cy5.5]
fold mean increase of probe accumulation in cartilage vs non-targeted HHY-306 [6]: 11.2 fold
fold mean increase of probe accumulation in cartilage vs scrambled HHY-322 [6]: 6.0 fold
Terminal Half Life ([2]; male, C57BL/6J, mouse, in vivo): 210.7 h
half-life ([1]; First Half Life (h)): 4 h
half-life ([1]; Terminal Half Life (h)): 210 h

AcNH-DOTA-Cy 5.5 [HHY-306]
First Half Life ([2]; mouse, in vivo): 0.5 h
Terminal Half Life ([2]; mouse, in vivo): 9.8 h
